Reference: article PMC2199964

Biological target: Suc1 protein coupled to CNBr-Sepharose beads (UniProt P08463)
Experiment: pull-down

Chain of Suc1 protein coupled to CNBr-Sepharose beads (P08463 whole entry): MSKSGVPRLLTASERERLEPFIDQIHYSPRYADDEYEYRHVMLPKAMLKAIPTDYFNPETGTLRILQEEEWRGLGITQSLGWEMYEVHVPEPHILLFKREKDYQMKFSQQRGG

percent of the protein removed from the extract by Suc1 beads: > 90%
Substance: Xenopus cyclin E, endogenous in interphase egg extract (natural protein)
